# According to the supplement of paper PMC9112550, “Optimization of the antimicrobial peptide Bac7 by deep mutational scanning” (BMC Biology, 2022):
# System: Escherichia coli TOP10
# Test: shrunken log2 fold change of peptide-encoding DNA abundance (4.5 h post-induction vs induction); higher = less antimicrobial activity (less host growth inhibition)
# Conditions: time post-induction: 4.5 h; library: site-saturation at positions 5, 18, 19, 20
# 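Further: peptides expressed intracellularly from a pBAD plasmid library in pooled LB shake-flask culture, induced with 0.3% L-arabinose, DNA abundance read by NGS, three biological replicates, DESeq2 with apeglm shrinkage.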
row,Sequence,shrunken log2 fold change
1,RRIRVRPPRLPRPRPRPQWRPRP,-0.0106
2,RRIRCRPPRLPRPRPRPANTPRP,-0.265
3,RRIRHRPPRLPRPRPRPIWNPRP,-0.892
4,RRIRGRPPRLPRPRPRPLCSPRP,0.496
5,RRIRMRPPRLPRPRPRPPDAPRP,1.53
6,RRIRGRPPRLPRPRPRPVNCPRP,0.139
7,RRIRHRPPRLPRPRPRPTMGPRP,0.144
8,RRIRRRPPRLPRPRPRPNQLPRP,-0.178
9,RRIRQRPPRLPRPRPRPHCKPRP,-0.187
10,RRIRKRPPRLPRPRPRPLAYPRP,0.259
11,RRIRSRPPRLPRPRPRPVCFPRP,0.156
12,RRIRIRPPRLPRPRPRPTVDPRP,0.11
13,RRIRMRPPRLPRPRPRPSLIPRP,-0.245
14,RRIRSRPPRLPRPRPRPDCNPRP,0.265
15,RRIRCRPPRLPRPRPRPAKFPRP,0.154
16,RRIRGRPPRLPRPRPRPSCPPRP,-0.12
17,RRIRSRPPRLPRPRPRPCYPPRP,-0.264
18,RRIRKRPPRLPRPRPRPVWRPRP,0.0611
19,RRIRYRPPRLPRPRPRPHDGPRP,0.015
20,RRIRCRPPRLPRPRPRPDYYPRP,-0.231
21,RRIRCRPPRLPRPRPRPTIFPRP,-0.626
22,RRIRARPPRLPRPRPRPTSFPRP,0.237
23,RRIRQRPPRLPRPRPRPQTAPRP,-0.000297
24,RRIRDRPPRLPRPRPRPYPNPRP,-0.0838
25,RRIRGRPPRLPRPRPRPVYKPRP,0.0688

row,Sequence,shrunken log2 fold change
1,RRIRNRPPRLPRPRPRPALWPRP,-0.15
2,RRIRRRPPRLPRPRPRPFPMPRP,0.0657
3,RRIRVRPPRLPRPRPRPTEVPRP,0.0934
4,RRIRGRPPRLPRPRPRPDYVPRP,0.66
5,RRIRQRPPRLPRPRPRPFNIPRP,0.0348
6,RRIRLRPPRLPRPRPRPDVHPRP,-0.186
7,RRIRGRPPRLPRPRPRPFVKPRP,-0.419
8,RRIRSRPPRLPRPRPRPMDHPRP,-0.187
9,RRIRWRPPRLPRPRPRPYVSPRP,-0.0404
10,RRIRYRPPRLPRPRPRPVIEPRP,-0.424
11,RRIRRRPPRLPRPRPRPFQLPRP,0.0918
12,RRIRPRPPRLPRPRPRPRHWPRP,0.423
13,RRIRPRPPRLPRPRPRPRVMPRP,0.327
14,RRIRGRPPRLPRPRPRPMAAPRP,1.4
15,RRIRCRPPRLPRPRPRPDPSPRP,-0.0265
16,RRIRDRPPRLPRPRPRPSLCPRP,-0.0148
17,RRIRSRPPRLPRPRPRPNWKPRP,0.00354
18,RRIRTRPPRLPRPRPRPAPGPRP,0.544
19,RRIRNRPPRLPRPRPRPMDLPRP,0.00408
20,RRIRWRPPRLPRPRPRPNKIPRP,-0.432
21,RRIRYRPPRLPRPRPRPNTSPRP,-0.423
22,RRIRNRPPRLPRPRPRPTSYPRP,0.00322
23,RRIRFRPPRLPRPRPRPKTCPRP,0.0353
24,RRIRYRPPRLPRPRPRPWLTPRP,-0.558
25,RRIRGRPPRLPRPRPRPNYPPRP,0.0611

row,Sequence,shrunken log2 fold change
1,RRIRFRPPRLPRPRPRPRCHPRP,-0.0965
2,RRIRVRPPRLPRPRPRPWSCPRP,-0.155
3,RRIRGRPPRLPRPRPRPQVPPRP,-0.0856
4,RRIRIRPPRLPRPRPRPIFEPRP,-0.0533
5,RRIRKRPPRLPRPRPRPMPPPRP,0.729
6,RRIRRRPPRLPRPRPRPHYPPRP,0.158
7,RRIRMRPPRLPRPRPRPAQCPRP,0.0203
8,RRIRDRPPRLPRPRPRPNNDPRP,0.132
9,RRIRFRPPRLPRPRPRPKARPRP,0.297
10,RRIRDRPPRLPRPRPRPSNWPRP,-0.136
11,RRIRCRPPRLPRPRPRPSQKPRP,-0.169
12,RRIRYRPPRLPRPRPRPEEPPRP,0.115
13,RRIRERPPRLPRPRPRPKTMPRP,-0.293
14,RRIRMRPPRLPRPRPRPQNVPRP,-0.0183
15,RRIRSRPPRLPRPRPRPARHPRP,0.277
16,RRIRSRPPRLPRPRPRPAFSPRP,-0.145
17,RRIRMRPPRLPRPRPRPEGEPRP,0.123
18,RRIRFRPPRLPRPRPRPDMGPRP,-0.176
19,RRIRVRPPRLPRPRPRPVCCPRP,0.0608
20,RRIRRRPPRLPRPRPRPGIHPRP,0.252
21,RRIRQRPPRLPRPRPRPGHFPRP,-0.0162
22,RRIRERPPRLPRPRPRPFVMPRP,-0.345
23,RRIRHRPPRLPRPRPRPPVAPRP,0.0782
24,RRIRYRPPRLPRPRPRPLAYPRP,-0.15
25,RRIRNRPPRLPRPRPRPTQRPRP,0.582

row,Sequence,shrunken log2 fold change
1,RRIRTRPPRLPRPRPRPFHSPRP,-0.137
2,RRIRTRPPRLPRPRPRPLSYPRP,-0.155
3,RRIRQRPPRLPRPRPRPFRRPRP,0.0238
4,RRIRVRPPRLPRPRPRPKPPPRP,0.318
5,RRIRRRPPRLPRPRPRPPKQPRP,0.459
6,RRIRARPPRLPRPRPRPFFQPRP,0.107
7,RRIRQRPPRLPRPRPRPAPWPRP,0.548
8,RRIRFRPPRLPRPRPRPWNVPRP,-0.157
9,RRIRLRPPRLPRPRPRPICHPRP,-0.368
10,RRIRERPPRLPRPRPRPNVDPRP,-0.0153
11,RRIRKRPPRLPRPRPRPYIEPRP,-0.127
12,RRIRWRPPRLPRPRPRPCIRPRP,-0.147
13,RRIRGRPPRLPRPRPRPGTRPRP,0.703
14,RRIRNRPPRLPRPRPRPQQFPRP,-0.0018
15,RRIRWRPPRLPRPRPRPAIIPRP,-0.296
16,RRIRWRPPRLPRPRPRPRLIPRP,0.55
17,RRIRFRPPRLPRPRPRPIRRPRP,0.0321
18,RRIRHRPPRLPRPRPRPHNDPRP,-0.329
19,RRIRNRPPRLPRPRPRPLCGPRP,-0.13
20,RRIRSRPPRLPRPRPRPMSSPRP,-0.313
21,RRIRNRPPRLPRPRPRPFNMPRP,-0.149
22,RRIRYRPPRLPRPRPRPFDIPRP,0.0167
23,RRIRGRPPRLPRPRPRPENEPRP,0.686
24,RRIRNRPPRLPRPRPRPHLVPRP,-0.0893
25,RRIRNRPPRLPRPRPRPYPLPRP,-0.042

row,Sequence,shrunken log2 fold change
1,RRIRKRPPRLPRPRPRPYDCPRP,-0.171
2,RRIRPRPPRLPRPRPRPYKQPRP,-0.777
3,RRIRVRPPRLPRPRPRPFTKPRP,-0.79
4,RRIRVRPPRLPRPRPRPCQFPRP,0.143
5,RRIRLRPPRLPRPRPRPLPKPRP,0.393
6,RRIRGRPPRLPRPRPRPFYFPRP,0.219
7,RRIRKRPPRLPRPRPRPKYMPRP,-0.0337
8,RRIRWRPPRLPRPRPRPSGTPRP,0.0142
9,RRIRKRPPRLPRPRPRPEDRPRP,0.206
10,RRIRFRPPRLPRPRPRPMDSPRP,-0.398
11,RRIRVRPPRLPRPRPRPWVCPRP,0.133
12,RRIRQRPPRLPRPRPRPMIAPRP,-0.00222
13,RRIRVRPPRLPRPRPRPCRGPRP,1.11
14,RRIRPRPPRLPRPRPRPNNNPRP,-0.659
15,RRIRERPPRLPRPRPRPSRIPRP,-0.234
16,RRIRTRPPRLPRPRPRPLMNPRP,-0.852
17,RRIRTRPPRLPRPRPRPFGLPRP,0.0236
18,RRIRERPPRLPRPRPRPSAVPRP,-0.411
19,RRIRVRPPRLPRPRPRPCEEPRP,0.24
20,RRIRIRPPRLPRPRPRPRRQPRP,0.0868
21,RRIRWRPPRLPRPRPRPIMDPRP,-0.195
22,RRIRVRPPRLPRPRPRPARMPRP,0.425
23,RRIRTRPPRLPRPRPRPGTSPRP,-0.043
24,RRIRMRPPRLPRPRPRPTHPPRP,0.564
25,RRIRRRPPRLPRPRPRPMCAPRP,0.193

row,Sequence,shrunken log2 fold change
1,RRIRYRPPRLPRPRPRPKILPRP,-0.247
2,RRIRNRPPRLPRPRPRPEYLPRP,0.0183
3,RRIRPRPPRLPRPRPRPSNYPRP,-0.733
4,RRIRCRPPRLPRPRPRPKNYPRP,-0.676
5,RRIRLRPPRLPRPRPRPQSVPRP,-0.325
6,RRIRIRPPRLPRPRPRPYTDPRP,-0.0335
7,RRIRHRPPRLPRPRPRPLEGPRP,0.0244
8,RRIRSRPPRLPRPRPRPERKPRP,-0.0872
9,RRIRQRPPRLPRPRPRPDYRPRP,-0.00448
10,RRIRDRPPRLPRPRPRPWKVPRP,-0.0565
11,RRIRVRPPRLPRPRPRPPKVPRP,0.392
12,RRIRSRPPRLPRPRPRPRKRPRP,0.213
13,RRIRRRPPRLPRPRPRPFFNPRP,-0.0577
14,RRIRERPPRLPRPRPRPFGKPRP,-0.01
15,RRIRIRPPRLPRPRPRPDWFPRP,0.0564
16,RRIRIRPPRLPRPRPRPYMAPRP,-0.281
17,RRIRPRPPRLPRPRPRPIKIPRP,-0.319
18,RRIRCRPPRLPRPRPRPEFEPRP,0.0293
19,RRIRFRPPRLPRPRPRPGRKPRP,0.107
20,RRIRARPPRLPRPRPRPTFMPRP,0.106
21,RRIRKRPPRLPRPRPRPAHRPRP,0.562
22,RRIRPRPPRLPRPRPRPEINPRP,-0.264
23,RRIRQRPPRLPRPRPRPKVFPRP,-0.00192
24,RRIRPRPPRLPRPRPRPGCYPRP,0.189
25,RRIRIRPPRLPRPRPRPGYCPRP,-0.371
